Read-outs that look alike come from different tables or passages of the source. Ends that are not written are not given here.

In test [1] the target is Factor VIII light chain (A3C1C2 domains). The test can be described thus: ELISA. (ELISA stands for enzyme-linked immunosorbent assay.)
In test [2] the target is Factor X. The test can be described thus: ELISA.
The target of test [3] is Factor X. The test can be described thus: cross-linking.
In test [4] the target is Factor X. The test can be described thus: SPR. For orientation: SPR reads the build-up and loss of mass on a sensor chip optically.
The target of test [5] is Factor X. Kind of test: SPR. This is another data set of the same source.
The target in test [6] is Factor X. The test can be described thus: ELISA. This is another data set of the same source.
Test [7] addresses Factor X. Kind of test: cross-linking. The source holds these as a separate data set.

As for Factor X (natural protein), in test [1], the Kd (commonly the free concentration of one partner at which half of the binding sites on the other are occupied at equilibrium, for simple one-to-one binding) worked out at 89.9 nM and the Ki (commonly a dissociation constant, usually derived from enzyme kinetics or from competition with a known ligand) amounted to 154 nM.
As to “Factor VIII light chain (A3C1C2 domains) (domain or fragment)”, the values for the Kd in test [2] and in test [4] were 370 nM and 165 nM, respectively. In test [3], the stoichiometry N – broadly, a count of units in the complex or per binding partner – is 1.
In test [4], “A3C1C2 subunit from recombinant wild type FVIII (from UniProt P00451 1709-2351) (domain or fragment)” came in with a Kd of 57 nM.
On the same count and under the same terms, next, “A3C1C2 subunit from FVIII variant Leu2013Ala (from UniProt P00451 1709-2351) (domain or fragment)”: 63.9 nM.
On the same count and under the same terms, next, “A3C1C2 subunit from FVIII variant Ser2011Ala (from UniProt P00451 1709-2351) (domain or fragment)”: 59.4 nM; “A3C1C2 subunit from FVIII variant Thr2012Ala (from UniProt P00451 1709-2351) (domain or fragment)”: 85.8 nM; “A3C1C2 subunit from FVIII variant Thr2012Ala/Leu2013Ala/Phe2014Ala (from UniProt P00451 1709-2351) (domain or fragment)”: 239 nM.
“active site-modified activated protein C (DEGR-APC) (enzyme)” displayed a Ki in test [1] of 82.7 nM.
In turn, “A3C1C2 subunit from FVIII variant Met2010Ala (from UniProt P00451 1709-2351) (domain or fragment)” displayed a Kd in test [4] of 59.5 nM.
“A3C1C2 subunit from FVIII variant Phe2014Ala (from UniProt P00451 1709-2351) (domain or fragment)”: the Kd in test [4] is 104 nM.
Same read-out and setting: the result for “A3C1C2 subunit from FVIII variant Val2016Ala (from UniProt P00451 1709-2351) (domain or fragment)” reads 55.7 nM.
Still for that read-out and setting: next, “A3C1C2 subunit from FVIII variant Thr2012Ala/Phe2014Ala (from UniProt P00451 1709-2351) (domain or fragment)”: 193 nM; “A3C1C2 subunit from FVIII variant Leu2015Ala (from UniProt P00451 1709-2351) (domain or fragment)”: 45.1 nM.
As to HAGMSTLFLV [synthetic peptide corresponding to FVIII A3 residues 2007-2016], the Kd in test [5] is 7700 nM. In test [6], this molecule registered a Ki of 152000 nM and a percent inhibition of FVIII LC binding to FX at 800 μM peptide of 80%.
In test [7], HAGMSTLFLV (also: biotinylated, position not given here) [biotinylated 2007-2016 peptide] returned a stoichiometry N of 1.

For the origin of these results see paper PMC3298758.
